Results from the nanobody polyreactivity screen of Harvey et al. (2022).

Assay: yeast display, Sf9 membrane polyspecificity reagent, FACS + sequencing; frameworks hold sequencing errors
In short: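 Nanobodies came from a synthetic yeast display library in Saccharomyces cerevisiae BJ5465, induced with galactose for 36–48 hours and stained for 1 hour at 4 °C with 10% biotinylated, detergent-solubilized Sf9 membrane reagent. Cells were enriched on streptavidin microbeads and then FACS-sorted, with low and high (top ~1%) gates set on anti-HA fluorescence for expression and streptavidin fluorescence for reagent binding. Each polyreactivity label reflects the gate a clone came from. Genes were amplified by colony PCR, sequenced by MiSeq 2 × 250 and filtered by CDR length.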

Sequence	polyreactivity (PSR sort gate)
QVQLVESGGGLVQAGGSLRLSCDASGLIFYSYAMGWYRQAPGKERELVAAISSRGGSTYYADSVKGRFTISRDNAKNTVYLQMNSLKQEDSAVYYCNAYFLLPHYDYWGQGTQVTVSS	low polyreactivity
QVQLVESGGGLVQAGGSLRLSCAASGSIFNRYAMGLYRQAPVKERELVAAISSTGSTYYADSVKGRFTISRDNAKNTVYLQMNSLKPEDTAVYYCATDDPLSQINEQGMDYWGQGTQVTVSS	low polyreactivity
QVQLVESGGGLVQAGGSLRLSCAASGSIFRWNSMGGYRQAPGKERELVASITSGGSTYYADSVKGRFTISRDNAKNTVYLQMNSLKPEDTAVYYCAAARYPGRKFDYWGQGTQVTVSS	high polyreactivity
QVQLVESGGGLVQAGGSHRLSCAASGFIFVRNAMGWYRQAPGKERELVAAISSSGGSTNYADSVKGRFTISRDNAKNTVYLQMNSLKPEDTAVYYCNVVTFRYYYKYGYWGQGTQVTVSS	high polyreactivity
QVQLVESGGGLVQAGGSLRLSCAASGIIFGYYAMGWYRQAPGKERELVATINWDGGSTYYADSVKGRFTISRDNAKNTVYLQMNSLKPEDTAVYYCAAAKPVQYRIAQAHVGYWGQGTQVTVSS	low polyreactivity
QVQLVESGGGLVQAGGSLRLSCAASGSIFGRNAMGWYRQAPGKDRELVAAINSGGSTNYADSVKGRFTISRYNAKNTVYLQMNSLKPEDTAVYYCAARTYSSGRYYGYVAFYYWGQGTQVTVSS	high polyreactivity
QVQLVESGGGLVQAGGSLRLSCAASGRIFRYNVMGWYRQAPGKERELVAAITSRGGSTYYADSVKGRFTISRDNAKNTVYLQMNSLKPEDTAVYYCAAYPWEFGTYNYWGQGTQVTVSS	high polyreactivity
QVQLVESGGGLVQAGGSLRLSCAASGSIFTEYAMGWYRKAPGKERELVAVITLRGGSTYYADSVKGRFTISRDNAMNTVYLQMNSLKPEDTAVYYCAAVTLVSFWFDYWGQGTQVTVSS	low polyreactivity
QVQLVESGGGLVQAGGSLRLSCAASGRIFTIYAMGWSRQAPGKERELVAAITVSTGSTYYADSVKGRFTISRDNAKNTVYLQMKSLKPEDTAVYYCAKRGQSYTYRRYDYWGQGTQVTVSS	low polyreactivity
QVQLVESGGGLVQAGGSLRLSCAASGSTFGYNAMGWYRQAPGKEREFVAAITRRGGNTYYADSVKGRFTISRDNAKNTVYLQMNSLKPEDTAVYYCAARYLQGRYDYWGQGTQVTVSS	high polyreactivity
QVQLVESGGGLVQAGGSHRLSCAASGFTFVNNALGWYRQPPGKEREFVAPISSDGGSTYYADSVKGRFTMSRDNAKNTVYLQMNSLKPEDTAVYYCAKVYPYRTYDTSYYHYHYDSWGQGTQVTVSS	low polyreactivity
QVQLVESGGGLVQAGGSLRISCAASGIIFPYAMGWYRQAPGKERELVARITVGSTSYADSVKGRFTISRDNAKNTVYVQMNSLKPEDTAVYYCNKDSGEDDRWPYDYWGQGTQVTVSS	low polyreactivity
QVQLVESGGGLVQAGGSLRLSCAASVYTVVWYAMGWYRPAPGKERELVAVITSGGGTNYADSVKGRFTISRDNAKNTVYLQMNSLKPEDTAVYYCAAVWYTSRQKYDYWGQGTQVTVSS	low polyreactivity
QVQHVESGGGLVQAGGSLRLSCAASGFTIPNYAMGLYRQAPGKERELVAAITSGGGRTNYADSVKGRFTISRDNAKNTVDLQMNSLKPEDTAVYDCAKTRLRGSEFGFWGQGTQVTVSS	low polyreactivity
QVQLVESGGGLVQAGGSLRLSCAASGIIFINYAMGWYRQAPGKEWELVAAITSSGGSTYYADSVKGRFTISRDNAKNTVYLQMNSLKPEDTAVYYCAAVSSYWGQGTQVTVSS	low polyreactivity
QVQLVESGGGLVQAGGSLRLSCAASGSIFDWYAMGWYRQAPGKEGELVAAISSGDSTYYADSVKGRFTISRDNAKITVYLQMNSLKPEDTAVYDCAAEFHDDHPSFDYWGQGTQVTVSS	low polyreactivity

Sequence	polyreactivity (PSR sort gate)
QVQLVESGGGLVQAGGSLRLSCAASGNTFPFNAMGWYRQAPGKERELVAAISRGGSTYYADSVKGRFTISRDNAKNTVYLQMNSLKPEDTAVYYCAVSAGKRRLDYWGQGTQVTVSS	high polyreactivity
QVQLVESGGGLVQAGGSLRLSCAASGLTFVQNAMGWYRQAPGKERELVAAISSRGGSTYYADSVKGRFTISRDNAKNTVYLQMNSLKPEETAVYYCNTRSITKYDYWRRGYGYWGQGTQVTVSS	high polyreactivity
QVQLVESGGGLDQAGGSLRLSCAASGIIFPVYARGGYRQAPGKERELVAAISSVGSTNYADSVKGRFTISRDNAKNTVYLQMNSLKPEDTAVYYCAVDWAQEDGYWGQGPQVTVSS	low polyreactivity
QVQLVESGGGLFQAGGSLRLSCAASGRTFAYYTMGWYRQAPGKERELVAAITSSGGSTYYADSEKGRFTISRDNAKNTVYLQMNSLKPEDTAVYYCNAYGLRWASRLGYDYWGQGTQVTVSS	high polyreactivity
QVQLVESGGGLVQAGGSLRLSCAASGRTFGVNTMGWYRQAPGKERELVASISTSGGSTYADSVKGRFTISRDNAKNTVYLQMISLKPEDTAVYYCARTYYWYLRVDYWGQGTQVTVSS	low polyreactivity
QVQLVESGGGLVQAGGSLRLSCAASGSTFLNYAMGWYRQAPGKERELVAAISFSGGRTYYADSVKGRFTISRDNAKNTVFLQMNSLKPEDTAVYYCAARGSYAYYRGQGTQVTVSS	high polyreactivity
QVQLVESGGGLFQAGGSLRLSCAASGFTVRRYTMGWYRPATGKEREMVATISLSDGNTYYADSVKGRFTISRDNAKNTVYLQMNRLKAEDTAFYDCNAYSQSWNFYGDGDYWGQGTQVTVSS	low polyreactivity
QVQLVESGGGLVQAGGSLRLSCAASGGSFYPYAMGWSRQAPGKERELLAAISWSGDITYYADSVKGRFTISRDNANNTVYLQMNSLKPEDTAVYYCAAGRVVDKDPSYFREGDYWGQGTQVTVSS	low polyreactivity
QVQLVESGGGLVQAGGSLRLSCAASGLTFGNYSKGWYRQAPGKERELVAAISKRGGTTYYADSVKGRFTISRDNAKNTVYLQMNSLKPEDTAVYYCAAQVGRGYEVYPVYKYGYWGQGTQVTVSS	high polyreactivity
QVQLVESGGGLVQAGGSLRLSCAASGFIFAAYAMGWYRQAPGKERELVAAITWDGGSTYYADSVKGSFTISRDNAKNTVYLQMNSLKPEDTAVYYCAARRRHGYDYWGQGTQVTVSS	high polyreactivity
QVQLVESGGGLVQEGRSLRLSCAASGLTFQYYAMGWYRPAPGKERELVAAISSGGDTYYADSVKGRFTISRDNAKNNVYFQMYSVKREDTAVYYCAARVVLYSRSTYYYWGQGTQVTVSS	high polyreactivity
QVQLVESGGGLVQEGGSLRLSCAASGSIFKPYAMGWYRQAPGKERELVAAINRGGTSTYYADSVKGRFTISRDNAKHTVYLQMNRLKPEDTAVYYCAAEGQDGRFYWGQGTQVTVSS	low polyreactivity
QVQLVESGGGLVQAGGSLRLSCSASGSTFKYNAKGWYIQETGKEWELVAYITRGGHTNYAVSVKGRFTISRDNAKNTVYLQMNRLKPEDTAVYYCAAVRPSVGFRGAWYPQYDYWGQGTQVTVSS	low polyreactivity
QVQLLESGGGLVQAGGSLRLRCASSGRIFVYYAMGWYRQAPGKERELVAANRWTGGSTYYADSVKGRFTISRDNAKNTVYLQMNSLKPEDTAVYYCATVNRYGHFNYWGQGTQVTVSS	high polyreactivity
QVQLVESGGGLVQAGGSLRLSCAASGLIFWFYAMGWYRQAPGKERELVAAISGDGDSTYYADSVKGRFTISRDHAKNTVYLQMNSLKPEDTAVYYCAAEWDPVFATDEDDYWGQGTQVTVSS	low polyreactivity
QVQLVESGGGLVQAGGSLRLSCAASGSIFSHNAMGWYRQAPGKERELVASMTGSGGSTYYADSVKGRFTISRDNAKNTVYLHMNSLKPEDTAVYYCAADSYGRSETEDDYWGQGTQVTVSS	low polyreactivity
